In PMC9363421:

Key:
GFAT1 [1] = molecular target: GFAT1 (UniProt Q06210); experiment: GST pull-down after in vitro kinase reaction; conditions: sites S438
GFAT1 [2] = molecular target: GFAT1 (UniProt Q06210); experiment: His-TAB1 pull-down after JNK reaction; conditions: reference: His-TAB1 WT treated with JNK; sites S438
GFAT1 [3] = molecular target: GFAT1 (UniProt Q06210); experiment: co-immunoprecipitation of TAB1 mutants; conditions: reference: wild type; sites S438

## TAB1 (from UniProt Q15750) His-TAB1-S438A treated with p38α
GFAT1 [1]; reference: His-TAB1 WT treated with p38α
  binding against the reference: weaker

## TAB1 (from UniProt Q15750) His-TAB1-S438A treated with JNK
GFAT1 [2]
  binding against the reference: weaker

## TAB1 (from UniProt Q15750) S438A
GFAT1 [3]
  binding against the reference: weaker

## TAB1 (from UniProt Q15750) His-TAB1-S438A treated with JNK1
GFAT1 [1]; reference: His-TAB1 WT treated with JNK1
  binding against the reference: weaker
